This assay addresses His–CtBP2 (UniProt P56545 1-445). The assay can be described thus: ELISA. Background: In an ELISA, binding on a coated surface is turned into a signal by an enzyme label.

B1: CP61 (cyclo-SGWTVVRMY) (peptide)
peptide: SGWTVVRMY
modifications: cyclic peptide (cyclo-SGWTVVRMY)
As for B1, the IC50 – broadly, the concentration needed to halve the response being measured – turned out to be 19 ± 4 µM.

These data come from article PMC6237275 (Chemical science, 2013).
